Source: US20090092600A1 (Dana-Farber, published 2009)

Target: T1, GST (glutathione-S-transferase) (UniProt P08515 1-218 = GST)
T1 construct: Control protein in the GST pull-down
Assay: GST pull-down on glutathione beads, immunoblot with anti-His or anti-MUC1-C
Experimental: The binding of MUC1 to HSF1 could be direct or indirect, for example, through a third protein. To determine if the interaction between MUC1 and HSF1 is a direct, physical interaction, in vitro binding assays was performed. GST- and GST-STAT3 polypeptides were incubated with purified His-tagged MUC1-CD (similar to GST-HSF1-His-MUC1 experiments described above). The protein mixtures were then incubated with glutathione beads, which bind to the GST proteins and associated binding partners if present. The glutathione bead adsorbates were washed and immunoblotted with antibodies specific for His tags or to MUC1-C (as described above). His-tagged MUC1 was present in GST-STAT3 adsorbates but not GST-adsorbates.

T1 sequence (P08515 whole entry): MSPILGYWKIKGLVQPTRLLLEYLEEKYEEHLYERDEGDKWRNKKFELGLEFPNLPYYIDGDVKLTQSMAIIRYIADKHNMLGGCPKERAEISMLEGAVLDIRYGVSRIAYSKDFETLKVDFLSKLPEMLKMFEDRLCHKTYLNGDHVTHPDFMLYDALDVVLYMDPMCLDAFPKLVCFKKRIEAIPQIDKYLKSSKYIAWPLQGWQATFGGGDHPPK

binding result: no binding
B1: His-tagged MUC1-CD (MUC1 cytoplasmic domain) (other)
chain: CQCRRKNYGQLDIFPARDTYHPMSEYPTYHTHGRYVPPSSTDRSPYEKVSAGNGGSSLSYTNPAVAAASANL
notes: Purified recombinant protein; also called His-MUC1; not shown: His tag
